Source: US20250277196A1, “EPSPS MUTANTS AND METHOD OF ITS USES” (CROPEDIT BIOTECHNOLOGY INC., priority 2021, published 2025)

Experiments:
Type in all cases: cell-based
[1] = system: E. coli lacking EPSPS; assay: Resistance test of flax EPSPS V403A mutant and comparison with wild type (FIG. 4); conditions: presence of 1 mM and 2 mM glyphosate
Method: The flax (Linum usitatissimum) EPSPS mutant sequence(SEQ ID NO: 27) was synthesized and cloned into the pKED2 vector to obtain the vector LuVA. The vector LuWt was created after introducing A403V mutation by PCR.
(§1) a) PCR system: According to the primer and template mixed PCR system corresponding to the target vector in the above table, the forward primer was 1.25 μl, the reverse primer was 1.25 μl, the template plasmid was 2 μl, the Q5 PCR master mix was 12.5 μl, and ddH2O was […].
(§2) b) PCR reaction conditions were as follows: the annealing temperature was set according to the annealing temperature corresponding to the target carrier in the above table.
(§3) c) Took out 5 μl of the obtained PCR product and added it to the loading buffer for agarose gel electrophoresis. A band with a size of about 4.5 kb was considered successful.
(§4) d) Used NEB's KLD enzyme mixture to remove the template and then connected the PCR product. The connection system was 5 μl KLD buffer, 1 μl KLD MIX, 1 μl PCR product, and ddH2O 3 μl. After ligating at room temperature for 5 min, transformed it into E. coli.
e) The ligation product was transformed into Dh5a competent E. coli lacking EPSPS. After resuscitation, the cells were washed twice with M9 medium, and then the washed cells were spread on M9 medium and cultured for 48 h. […]

[2] = system: E. coli lacking EPSPS; assay: Resistance identification of flax EPSPS mutants LuGPV, LuTIPT, LuTIPTVA (FIG. 5, FIG. 6); conditions: FIG. 6
Source text: The G172 position and P177 position of LuVA were mutated into A and S at the same time by PCR, and a 3-point mutant LuGPV was obtained.
The T173 and P177 positions of LuWT were simultaneously mutated to I and T by PCR, and a […] mutant LuTIPT was obtained.
The T173 and P177 positions of LuVA were simultaneously mutated to I and T by PCR, and a 3-point mutant LuTIPTVA was obtained.
as §1, §2, §3
(§5) d) Used NEB's KLD enzyme mixture to remove the template and connected the PCR product. The connection system was 5 μl KLD buffer, 1 μl KLD MIX, 1 μl PCR product, and ddH2O 3 μl. After ligating at room temperature for 5 min, transformed it into E. coli.
e) The ligation product was transformed into Dh5a competent E. coli lacking EPSPS. After resuscitation, the cells were washed twice with M9 medium, and then the washed cells were spread on M9 medium and cultured for 48 h. Sequenced the grown single colony (Tsingke Biological Technology Co., Ltd.), and selected the correct mutant to save for future use.
The resistance results were shown in FIG. 5: LuWt(SEQ ID NO:26) represents the EPSPS2 gene of flax, LuGPV (SEQ ID NO:30) represents the flax G172A+P177S+V403A three-point mutant. The resistance results were shown in FIG. 6: LuTIPT (SEQ ID NO:28) was the flax T173I+[…] double-point mutants, LuTIPTVA (SEQ ID NO:29) was flax T173I+P177T+V403A three-point mutants.

[3] = system: E. coli lacking EPSPS; assay: Resistance test of soybean EPSPS mutant and comparison with wild type (FIG. 4); conditions: 0.5 mM glyphosate
Source text: According to the wild-type sequence information of soybean (Glycine max) EPSPS (SEQ ID NO:36), the gene was synthesized and inserted into the vector pKED2 to obtain the vector GmWt. The V403 site of GmWt was mutated to A by PCR, and the vector GmVA expressing the soybean EPSPS mutant protein containing the V403A mutation was obtained. The specific experimental steps were as following:
as §1, §2, §3, §5
(§6) e) The ligation product was transformed into Dh5a competent E. coli lacking EPSPS. […]

[4] = system: E. coli lacking EPSPS; assay: Resistance test of wheat EPSPS mutant and comparison with wild type (FIG. 4); conditions: 0.2 mM glyphosate
Source text: The gene was synthesized according to the V403A mutant sequence information (SEQ ID NO:32) of the EPSPS gene on chromosome 7 of the wheat A genome and inserted into the vector pKED2 to obtain the wheat (Triticum vulgare) EPSPS mutant expression vector TaVA containing the V403A mutation. The A403 site of TaVA was mutated back to V by PCR, and a TaWt vector expressing the EPSPS wild-type gene on chromosome 7 of wheat A genome was obtained.
as §1, §2, §3, §4, §6

B1: LuVA (protein)
DNA: MTVPEEIVLQPIKDISGIVTLPGSKSLSNRILLLAALSEGKTVVDNLLNSDDVHYMLGALKTLGLNVEHSSEQKRAIVEGRGGVFPVGKLGKNDIELFLGNAGTAMRPLTAAVTAAGGNSSYILDGVPRMRERPIGDLVVGLKQLGADVSCSSTSCPPVHVNAKGGLPGGKVKLSGSISSQYLTALLMAAPLALGDVEIEIVDKLISVPYVDMTLKLMERFGVAVEHSGSWDRFFVKGGQKYKSPGNAYVEGDASSASYFLAGAAITGGTITVEGCGTSSLQGDVKFAEVLEKMGAKVTWTETSVTVTGPPRDASGKKHLRAVDVNMNKMPDAAMTLAVVALYADGPTAIRDVASWRVKETERMIAVCTELRKLGATVEEGPDYCIITPPEKLSIAEIDTYDDHRMAMAFSLAACADVPVTIRDPGCTKKTFPDYFEVLERYTKH
modifications: This sequence is synthesized in lab.
[1]
  growth status compared with LuWt: significantly better than that of LuWt

B2: LuTIPTVA (protein)
DNA: MTVPEEIVLQPIKDISGIVTLPGSKSLSNRILLLAALSEGKTVVDNLLNSDDVHYMLGALKTLGLNVEHSSEQKRAIVEGRGGVFPVGKLGKNDIELFLGNAGIAMRTLTAAVTAAGGNSSYILDGVPRMRERPIGDLVVGLKQLGADVSCSSTSCPPVHVNAKGGLPGGKVKLSGSISSQYLTALLMAAPLALGDVEIEIVDKLISVPYVDMTLKLMERFGVAVEHSGSWDRFFVKGGQKYKSPGNAYVEGDASSASYFLAGAAITGGTITVEGCGTSSLQGDVKFAEVLEKMGAKVTWTETSVTVTGPPRDASGKKHLRAVDVNMNKMPDAAMTLAVVALYADGPTAIRDVASWRVKETERMIAVCTELRKLGATVEEGPDYCIITPPEKLSIAEIDTYDDHRMAMAFSLAACADVPVTIRDPGCTKKTFPDYFEVLERYTKH
modifications: This sequence is synthesized in lab.
[2]
  resistance compared with LuTIPT: higher than that of LuTIPT

B3: GmVA (protein)
DNA: MAAAEKPSTAPEIVLEPIKDISGTITLPGSKSLSNRILLLAALSEGTTVVDNLLYSEDIHYMLGALRTLGLRVEDDQTTKQAIVEGCGGLFPTIKESKDEINLFLGNAGTAMRPLTAAVVAAGGNASYVLDGVPRMRERPIGDLVAGLKQLGADVDCFLGTNCPPVRVNGKGGLPGGKVKLSGSISSQYLTALLMAAPLALGDVEIEIVDKLISVPYVEMTLKLMERFGVSVEHSGNWDKFLVHGGQKYKSPGNAFVEGDASSASYFLAGAAVTGGTITVNGCGTNSLQGDVKFAEVLEKMGAKVTWSENSVTVTGPPQDSSGQKVLQGIDVNMNKMPDAAMTLAVVALFANGQTAIRDVASWRVKETERMIAICTELRKLGATVEEGPDYCVITPPEKLNVTAIDTYDDHRMAMAFSLAACGDVPVTIKDPGCTRKTFPDYFEVLERFTRH
modifications: This sequence is synthesized in lab.
[3]
  growth status compared with GmWt: significantly higher than that of GmWt

B4: TaVA (protein)
DNA: MAGAEEVVLQPIREISGAVQLPGSKSLSNRILLLSALSEGTTVVDNLLNSEDVHYMLEALEALGLSVEADKVAKRAVVVGCGGRFPVEKDAKEEVKLFLGNAGTAMRPLTAAVVAAGGNATYVLDGVPRMRERPIGDLVVGLQQLGADVDCFLGTNCPPVRINGKGGLPGGKVKLSGSISSQYLSSLLMAAPLALEDVEIEIIDKLISVPYVEMTLKLMEHFGVTAEHSDSWDRFYIKGGQKYKSPGNAYVEGDASSASYFLAGAAITGGTVTVEGCGTTSLQGDVKFAEVLEMMGAKVTWTDTSVTVTGPPRQPFGRKHLKAVDVNMNKMPDAAMTLAVVALFADGPTAIRDVASWRVKETERMVAIRTELTKLGATVEEGPDYCIITPPEKLNITAIDTYDDHRMAMAFSLAACAEVPVTIRDPGCTRKTFPNYFDVLSTFVKN
modifications: This sequence is synthesized in lab.
[4]
  growth state compared with TaWt: significantly higher than that of TaWt
